According to paper PMC5578738 (eLife, 2017):

Target: T1, Side-VI (CG34114) complete ectodomain, biotinylated (SPR) (Drosophila melanogaster, UniProt Q0KI85 1-1087, biotin on the biotin acceptor peptide (E. coli BirA))
T1 construct: Side-VI (CG34114), Drosophila, complete ectodomain; source: Trichoplusia ni High Five cells, baculovirus, secreted, purified (Ni-NTA, SEC)
T1 sequence (looked up): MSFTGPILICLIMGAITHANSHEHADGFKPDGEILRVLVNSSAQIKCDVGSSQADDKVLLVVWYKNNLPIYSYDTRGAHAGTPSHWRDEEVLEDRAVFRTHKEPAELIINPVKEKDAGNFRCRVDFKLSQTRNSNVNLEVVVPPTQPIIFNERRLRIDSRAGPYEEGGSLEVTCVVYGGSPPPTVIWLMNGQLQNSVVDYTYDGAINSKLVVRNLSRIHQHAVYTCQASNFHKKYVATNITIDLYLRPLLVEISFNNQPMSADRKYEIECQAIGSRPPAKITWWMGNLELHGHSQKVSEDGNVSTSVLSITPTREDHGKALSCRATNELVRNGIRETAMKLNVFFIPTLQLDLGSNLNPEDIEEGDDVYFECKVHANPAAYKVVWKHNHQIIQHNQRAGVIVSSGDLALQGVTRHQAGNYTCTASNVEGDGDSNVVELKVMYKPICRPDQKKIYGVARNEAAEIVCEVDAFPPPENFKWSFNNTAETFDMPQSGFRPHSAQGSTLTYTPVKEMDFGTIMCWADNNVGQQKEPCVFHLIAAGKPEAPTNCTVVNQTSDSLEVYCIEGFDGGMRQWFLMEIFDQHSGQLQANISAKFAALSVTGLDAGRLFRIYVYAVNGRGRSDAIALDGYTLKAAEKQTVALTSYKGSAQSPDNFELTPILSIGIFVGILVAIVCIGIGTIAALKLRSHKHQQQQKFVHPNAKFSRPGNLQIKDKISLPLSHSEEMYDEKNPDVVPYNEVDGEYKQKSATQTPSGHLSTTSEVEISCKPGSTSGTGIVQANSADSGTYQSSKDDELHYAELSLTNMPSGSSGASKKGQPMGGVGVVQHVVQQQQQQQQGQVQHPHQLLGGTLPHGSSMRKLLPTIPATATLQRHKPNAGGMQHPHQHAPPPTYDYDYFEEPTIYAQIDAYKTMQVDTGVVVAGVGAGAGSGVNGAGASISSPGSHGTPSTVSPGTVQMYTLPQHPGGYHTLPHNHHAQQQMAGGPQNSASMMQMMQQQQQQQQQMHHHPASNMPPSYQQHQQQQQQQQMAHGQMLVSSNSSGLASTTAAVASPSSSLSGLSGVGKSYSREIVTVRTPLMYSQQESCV
Assay: SPR; Biacore T100; biotinylated Side-VI captured on an SA chip, Beat-Va or Beat-Vb flowed over; HBSp+ with 500 mM NaCl and 15% glycerol; equilibrium responses fitted to a Langmuir isotherm
Details: both partners purified

B1: Beat-Va complete ectodomain (SPR) (domain or fragment)
chain: LFVTDISVPEIVDFRDNVTLSCSYDMRGHTLNSVKWYKDHEEFFRYSPLTSPIYMTFDVAGLQVLEGKYVCNESSCRLDLSLQGAKSTGLYKCEVSGDAPHFKLADKADNMTVAALPQNDPLIESFNSMYRMEEYLKATCISDFSSLPTRLTWYINGEQPLLGELYPTTDTSLAAHDYVLRRQRLQVQFFLQGQRFFQAGKILELKCVAEIENYPELRREKTLSASLSQYDNFNNQMPLRHANANSGSAQRSILCGRTSLISAFLAAILLIHCLRRPS
How did the Kd turn out when B1 was run?
The Kd was 760 nM.

What about the koff of the same binder?
The koff was no less than 0.5 s⁻¹.
